Values of other authors, collected in PMC3859915.

Target: IL-15 (Mus musculus) (UniProt P48346)
UniProt P48346, sequence (P48346 49-162): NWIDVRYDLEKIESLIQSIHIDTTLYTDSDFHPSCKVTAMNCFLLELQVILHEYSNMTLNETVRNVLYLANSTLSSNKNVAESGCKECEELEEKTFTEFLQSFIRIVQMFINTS

Kd: 0.014 nM
Substance: IL-15Rα (from UniProt Q60819)
